# Results from the supplement of paper PMC9112550, “Optimization of the antimicrobial peptide Bac7 by deep mutational scanning” (BMC Biology, 2022).
# System: Escherichia coli TOP10
# Assay: shrunken log2 fold change of peptide-encoding DNA abundance (4.5 h post-induction vs induction); higher = less antimicrobial activity (less host growth inhibition)
# Conditions: time post-induction: 4.5 h; library: site-saturation at positions 5, 18, 19, 20
# 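Further: peptides expressed intracellularly from a pBAD plasmid library in pooled LB shake-flask culture, induced with 0.3% L-arabinose, DNA abundance read by NGS, three biological replicates, DESeq2 with apeglm shrinkage.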
row,Sequence,shrunken log2 fold change
1,RRIRLRPPRLPRPRPRPQQQPRP,0.0294
2,RRIRLRPPRLPRPRPRPHRDPRP,-0.0661
3,RRIRYRPPRLPRPRPRPPLWPRP,0.277
4,RRIRYRPPRLPRPRPRPKGHPRP,-0.145
5,RRIRMRPPRLPRPRPRPAQEPRP,0.0616
6,RRIRIRPPRLPRPRPRPMDPPRP,-0.347
7,RRIRDRPPRLPRPRPRPYDQPRP,-0.473
8,RRIRQRPPRLPRPRPRPHSPPRP,0.000964
9,RRIRWRPPRLPRPRPRPIDEPRP,0.0867
10,RRIRVRPPRLPRPRPRPCQGPRP,-0.226
11,RRIRRRPPRLPRPRPRPHREPRP,-0.0451
12,RRIRSRPPRLPRPRPRPLQWPRP,-0.0911
13,RRIRIRPPRLPRPRPRPGHSPRP,0.00697
14,RRIRKRPPRLPRPRPRPMVSPRP,0.0111
15,RRIRLRPPRLPRPRPRPVKDPRP,-0.211
16,RRIRLRPPRLPRPRPRPNVGPRP,0.0116
17,RRIRIRPPRLPRPRPRPHDSPRP,-0.398
18,RRIRFRPPRLPRPRPRPKYYPRP,-0.386
19,RRIRCRPPRLPRPRPRPQHIPRP,-0.868
20,RRIRWRPPRLPRPRPRPQSAPRP,0.372
21,RRIRHRPPRLPRPRPRPLITPRP,-0.324
22,RRIRQRPPRLPRPRPRPEMDPRP,0.231

row,Sequence,shrunken log2 fold change
1,RRIRERPPRLPRPRPRPNCLPRP,-0.297
2,RRIRARPPRLPRPRPRPNNGPRP,0.00213
3,RRIRARPPRLPRPRPRPIFIPRP,0.127
4,RRIRSRPPRLPRPRPRPHPFPRP,-0.25
5,RRIRWRPPRLPRPRPRPSVHPRP,-0.136
6,RRIRMRPPRLPRPRPRPTFYPRP,-0.157
7,RRIRRRPPRLPRPRPRPGAYPRP,0.00783
8,RRIRRRPPRLPRPRPRPEYWPRP,0.0322
9,RRIRVRPPRLPRPRPRPSYTPRP,-0.27
10,RRIRPRPPRLPRPRPRPRVSPRP,0.00758
11,RRIRERPPRLPRPRPRPETEPRP,0.192
12,RRIRKRPPRLPRPRPRPNWAPRP,0.279
13,RRIRTRPPRLPRPRPRPPAQPRP,0.608
14,RRIRFRPPRLPRPRPRPVDDPRP,-0.601
15,RRIRIRPPRLPRPRPRPLWFPRP,-0.257
16,RRIRIRPPRLPRPRPRPDENPRP,0.108
17,RRIRLRPPRLPRPRPRPGKDPRP,-0.153
18,RRIRARPPRLPRPRPRPRCWPRP,0.601
19,RRIRPRPPRLPRPRPRPRACPRP,0.456
20,RRIRQRPPRLPRPRPRPNQEPRP,-0.0578
21,RRIRLRPPRLPRPRPRPEHTPRP,0.0956
22,RRIRWRPPRLPRPRPRPKIIPRP,-0.0886

row,Sequence,shrunken log2 fold change
1,RRIRLRPPRLPRPRPRPQPRPRP,0.67
2,RRIRWRPPRLPRPRPRPSEMPRP,-0.148
3,RRIRQRPPRLPRPRPRPEQCPRP,-0.0442
4,RRIRCRPPRLPRPRPRPRWNPRP,2.15
5,RRIRQRPPRLPRPRPRPGWKPRP,0.115
6,RRIRGRPPRLPRPRPRPLRHPRP,1.34
7,RRIRLRPPRLPRPRPRPRPIPRP,0.384
8,RRIRIRPPRLPRPRPRPPHMPRP,-0.416
9,RRIRRRPPRLPRPRPRPPQYPRP,1.12
10,RRIRWRPPRLPRPRPRPAWDPRP,1.05
11,RRIRIRPPRLPRPRPRPAPFPRP,0.271
12,RRIRVRPPRLPRPRPRPCACPRP,0.0537
13,RRIRARPPRLPRPRPRPGTPPRP,0.642
14,RRIRFRPPRLPRPRPRPMFHPRP,-0.473
15,RRIRGRPPRLPRPRPRPFCTPRP,0.157
16,RRIRFRPPRLPRPRPRPFRLPRP,-0.197
17,RRIRVRPPRLPRPRPRPLSLPRP,-0.0403
18,RRIRDRPPRLPRPRPRPLFTPRP,0.0222
19,RRIRLRPPRLPRPRPRPINWPRP,-0.434
20,RRIRERPPRLPRPRPRPPQCPRP,-0.302
21,RRIRCRPPRLPRPRPRPSSNPRP,-0.715
22,RRIRDRPPRLPRPRPRPGNPPRP,-5.31e-05

row,Sequence,shrunken log2 fold change
1,RRIRQRPPRLPRPRPRPAKPPRP,-0.0548
2,RRIRNRPPRLPRPRPRPCEIPRP,0.0361
3,RRIRARPPRLPRPRPRPIQVPRP,-0.215
4,RRIRVRPPRLPRPRPRPHLIPRP,-0.352
5,RRIRNRPPRLPRPRPRPNQGPRP,-0.338
6,RRIRRRPPRLPRPRPRPLRTPRP,1.41
7,RRIRYRPPRLPRPRPRPIWMPRP,-0.0399
8,RRIRCRPPRLPRPRPRPTVMPRP,0.0757
9,RRIRRRPPRLPRPRPRPSGCPRP,0.212
10,RRIRDRPPRLPRPRPRPKDPPRP,-0.00415
11,RRIRPRPPRLPRPRPRPQRRPRP,-0.359
12,RRIRLRPPRLPRPRPRPERYPRP,-0.0429
13,RRIRARPPRLPRPRPRPACFPRP,0.736
14,RRIRQRPPRLPRPRPRPRMLPRP,-0.0148
15,RRIRARPPRLPRPRPRPNDLPRP,0.172
16,RRIRPRPPRLPRPRPRPKYEPRP,-0.203
17,RRIRYRPPRLPRPRPRPTSPPRP,-0.0595
18,RRIRFRPPRLPRPRPRPGWQPRP,0.188
19,RRIRRRPPRLPRPRPRPQNLPRP,-0.276
20,RRIRRRPPRLPRPRPRPQPNPRP,0.355
21,RRIRLRPPRLPRPRPRPIGAPRP,-0.0568
22,RRIRRRPPRLPRPRPRPLEEPRP,0.597

row,Sequence,shrunken log2 fold change
1,RRIRTRPPRLPRPRPRPTQYPRP,-0.207
2,RRIRRRPPRLPRPRPRPINMPRP,-0.271
3,RRIRNRPPRLPRPRPRPPWPPRP,0.387
4,RRIRTRPPRLPRPRPRPWSDPRP,-0.0131
5,RRIRPRPPRLPRPRPRPITYPRP,-0.782
6,RRIRQRPPRLPRPRPRPEWFPRP,-0.00295
7,RRIRGRPPRLPRPRPRPTGAPRP,1.31
8,RRIRQRPPRLPRPRPRPEAWPRP,0.316
9,RRIRRRPPRLPRPRPRPNGLPRP,0.0125
10,RRIRARPPRLPRPRPRPAGKPRP,0.164
11,RRIRSRPPRLPRPRPRPVWTPRP,0.241
12,RRIRERPPRLPRPRPRPQIDPRP,-0.046
13,RRIRGRPPRLPRPRPRPFLPPRP,-0.148
14,RRIRYRPPRLPRPRPRPYYPPRP,-0.293
15,RRIRFRPPRLPRPRPRPGKWPRP,-0.0163
16,RRIRRRPPRLPRPRPRPQCMPRP,-0.0592
17,RRIRDRPPRLPRPRPRPITCPRP,-0.403
18,RRIRYRPPRLPRPRPRPQRFPRP,-0.0259
19,RRIRARPPRLPRPRPRPCETPRP,0.00546
20,RRIRMRPPRLPRPRPRPRAMPRP,1.42
21,RRIRARPPRLPRPRPRPWHRPRP,0.00868
